The conditions of series [1]: rats; cited from earlier work.
A short description of series [2]: Blood concentration profile in rats (1).
Protocol: Blood Concentration Profile in Rats (1)
(§1) At 5 minutes, 1 hour, 6 hours, 24 hours, and 72 hours after administration, blood was collected through the jugular vein under isoflurane anesthesia successively in an amount of 0.3 mL each time, and the tacrolimus concentration in the collected blood was measured.
The conditions of series [3]: rat, in vivo, iv, 5 mg/kg.
Protocol: Blood Concentration Profile in Rats (1)
as §1
The test system of series [4] is rat collagen-induced arthritis. The series can be described thus: Anti-inflammatory effect for rat collagen-induced arthritis (1). It counts as in vivo. As to conditions: 5 mg/kg, q7 d × 4, i.v., DA rats, average score 0-5, footnote: Score 29 d. On the procedure: Anti-Inflammatory Effect for Rat Collagen-Induced Arthritis (1)
0.3 mg of bovine articular cartilage-derived type II collagen (immunological grade; Collagen Research Center, Ltd.) was intradermally administered on the dorsal side of nine-week old female DA rats (Japan SLC, Inc.), and thereby collagen-induced arthritis was induced in the rats. […] As a control, a non-administered group was provided. Determination of arthritis was made by scoring based on visual inspection.
From the time point after the sensitization with bovine articular cartilage-derived type II collagen, the progress of inflammation in the right hind limb and the left hind limb was monitored. It was determined that the onset of collagen-induced arthritis occurred when reddening was recognized in the toes of the right hind limb or the left hind limb. The extent of arthritis was evaluated in six stages according to the following scores from 0 to 5. […]

Here are results for 2 compounds from patent US10945997B2, “Polymer derivative of macrolide immunosuppressant” (Nippon Kayaku Kabushiki Kaisha, priority 2016, dated 2021).

Like-named read-outs stand apart in the source and are kept apart here. Marks after values point to notes of the source that are not given here.

The Tmax is the time at which the peak concentration occurs. Turning to `C=CC[C@@H]1/C=C(\C)C[C@H](C)C[C@H](OC)[C@H]2O[C@@](O)(C(=O)C(=O)N3CCCC[C@H]3C(=O)O[C@H](/C(C)=C/[C@@H]3CC[C@@H](O)[C@H](OC)C3)[C@H](C)[C@@H](O)CC1=O)[C@H](C)C[C@@H]2OC` [Tacrolimus, tacrolimus], in series [1], the “signs caused by intravenous administration” value is “slight respiratory distress, a decrease in locomotor activity, a prone position, stereotyped behavior”. For the same compound, in series [2] (female SD rats, i.v. once 5 mg/kg, tacrolimus in blood), the Tmax turned out to be 5 min. Moreover, the concentration at 72 h in series [2] (female, SD, rat, whole blood, iv, 5 mg/kg) is 0.273 ng/mL.

Usually Cmax stands for the peak of the concentration-time curve. Take “Tacrolimus-Bonded Polyethylene Glycol-αβ-Polyaspartic Acid Block Copolymer [Comparative Example 1]”: in series [3], the AUCinf. came out at 1050 ng·h/mL, the Cmax came to 280 ng/mL, the MRTinf. stood at 11.6 h and the “MRTinf. compared to tacrolimus” value was “prolongation”. For the same compound, in series [3], the Tmax was 5 min, the T½ turned out to be 9.57 h and the “blood concentration half-life compared to tacrolimus” value was “prolongation”. The “Arthritis score (29 d)” value in series [4] was 2.6*.
